Measurements from patent US20260242478A1 (published 2026).
Where no end group is shown, it is not given here.

B1: Phage-1278 (peptide)
peptide: YCEGHAQQYMLKCL
modifications: cysteine pairing not given here; also: fused to phage pIII protein, pIII and linker sequence not given here
notes: Peptide-87 library clone on clonal phage (crude supernatant); not shown: fused to the pIII filament protein of the bacteriophage
B2: Phage-1282 (peptide)
peptide: YCQGHALQYLQKCL
modifications: cysteine pairing not given here; also: fused to phage pIII protein, pIII and linker sequence not given here
notes: as for B1
B3: Phage-1280 (peptide)
peptide: YCEGHFGMYMSKCL
modifications: cysteine pairing not given here; also: fused to phage pIII protein, pIII and linker sequence not given here
notes: as for B1
B4: Phage-1286 (peptide)
peptide: YCDGHLPRFMVKCL
modifications: cysteine pairing not given here; also: fused to phage pIII protein, pIII and linker sequence not given here
notes: as for B1
B5: Phage-1128 (peptide)
peptide: YCDGHAEEYRMKCL
notes: Peptide-87 library clone, tested as clonal phage (peptide fused to pIII of the bacteriophage)
B6: Phage-1127 (peptide)
peptide: YCEGHQPAYMEKCL
notes: as for B5
B7: Phage-1273 (peptide)
peptide: YCEGHSSEYMVKCL
modifications: cysteine pairing not given here; also: displayed on phage by fusion to pIII, linker and pIII sequence not given here
notes: as for B1
B8: Phage-1281 (peptide)
peptide: YCAGHMPQYMSKCL
modifications: cysteine pairing not given here; also: fused to phage pIII protein, pIII and linker sequence not given here
notes: as for B1
B9: Phage-1277 (peptide)
peptide: YCDGHNPVYLAKCL
modifications: cysteine pairing not given here; also: fused to phage pIII protein, pIII and linker sequence not given here
notes: as for B1
B10: Phage-1284 (peptide)
peptide: YCEGHLPWYMSKCL
modifications: cysteine pairing not given here; also: fused to phage pIII protein, pIII and linker sequence not given here
notes: as for B1
B11: Phage-1125 (peptide)
peptide: YCEGHFPLYMNKCL
notes: as for B5
B12: Phage-1276 (peptide)
peptide: YCDGHAGIYVLKCL
modifications: cysteine pairing not given here; also: fused to phage pIII protein, pIII and linker sequence not given here
notes: as for B1
B13: Phage-1274 (peptide)
peptide: YCDGHTGVYKWKCI
modifications: cysteine pairing not given here; also: fused to phage pIII protein, pIII and linker sequence not given here
notes: as for B1
B14: Phage-1129 (peptide)
peptide: YCDGHLPVYMTKCL
notes: as for B5
B15: Phage-1285 (peptide)
peptide: YCDGHHLEYIDKCL
modifications: cysteine pairing not given here; also: fused to phage pIII protein, pIII and linker sequence not given here
notes: as for B1
B16: Phage-1275 (peptide)
peptide: YCAGHIGEYMDKCL
modifications: cysteine pairing not given here; also: fused to phage pIII protein, pIII and linker sequence not given here
notes: as for B1
B17: Phage-1126 (peptide)
peptide: YCEGHSTEYMAKCL
notes: as for B5
B18: Phage-1279 (peptide)
peptide: YCAGHSVQYMYKCL
modifications: cysteine pairing not given here; also: fused to phage pIII protein, pIII and linker sequence not given here
notes: as for B1
B19: Phage-1283 (peptide)
peptide: YCAGHLPQYVSKCL
modifications: cysteine pairing not given here; also: fused to phage pIII protein, pIII and linker sequence not given here
notes: as for B1

Legend:
[1] = target: T1, Anti-CD28 Fab (SEQ ID NOs: 696, 697); experiment: phage ELISA; Fab on plate pre-incubated with CD28 antigen as competitor, anti-M13 HRP detection
T1 construct: Used biotinylated and captured on neutravidin coated plates in the phage ELISA
T1 sequence (VH, as listed by the source, chain 1 of 2): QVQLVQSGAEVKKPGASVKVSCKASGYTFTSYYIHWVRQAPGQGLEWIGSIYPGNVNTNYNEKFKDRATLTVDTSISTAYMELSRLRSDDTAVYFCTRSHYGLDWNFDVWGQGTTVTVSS
T1 sequence (VL, as listed by the source, chain 2 of 2): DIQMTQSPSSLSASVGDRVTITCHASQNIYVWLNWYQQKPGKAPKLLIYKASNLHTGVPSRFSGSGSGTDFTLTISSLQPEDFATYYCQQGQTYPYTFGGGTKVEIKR
Experimental: (§1) After panning, phage infected bacteria were plated out and colonies picked into 96 well blocks. Clonal phage was then amplified and separated from bacterial cells via centrifugation.
(§2) Clonal phage were harvested as crude supematants and screened via standard ELISAs. […] Prior to the addition of clonal phage, wells were incubated with blocking buffer and CD28 antigen or blocking buffer alone. Without washing or aspirating, clonal phage supematants were then added to the wells and incubated for a short time. Wells were then washed followed by detection of bound phage using a horse radish conjugated anti-M13 antibody. Clonal phage of interest were then sent for sequence analysis.

[2] = target: T1, Anti-CD28 Fab (SEQ ID NOs: 696, 697); experiment: phage ELISA; biotinylated Fab on neutravidin plate, clonal phage supernatant, anti-M13 HRP detection
Experimental: as §1, §2

[3] = target: Anti-CD28 Fab (SEQ ID NOs: 696, 697); experiment: phage ELISA on captured anti-CD28 Fab, wells pre-incubated with CD28 antigen as competitor;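 note: crude clonal phage supernatants added without washing, bound phage read out by HRP-coupled anti-M13 antibody, reference wells given blocking buffer only instead of CD28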
Target sequence in this assay (VH, as listed by the source, chain 1 of 2): as the sequence (VH, as listed by the source, chain 1 of 2) above
Target sequence in this assay (VL, as listed by the source, chain 2 of 2): as the sequence (VL, as listed by the source, chain 2 of 2) above
Experimental: as §1, §2

[4] = target: Anti-CD28 Fab (SEQ ID NOs: 696, 697); experiment: phage ELISA, clonal phage supernatant on biotinylated anti-CD28 Fab captured on neutravidin plates
Target sequence in this assay (VH, as listed by the source, chain 1 of 2): as the sequence (VH, as listed by the source, chain 1 of 2) above
Target sequence in this assay (VL, as listed by the source, chain 2 of 2): as the sequence (VL, as listed by the source, chain 2 of 2) above
Experimental: as §1, §2

[5] = target: Anti-CD28 Fab (SEQ ID NOs: 696, 697); experiment: phage binding ELISA; Fab-coated wells pre-incubated with CD28 antigen as competitor, anti-M13 HRP detection;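 note: crude clonal phage supernatants added without washing after the CD28 pre-incubation, with wells given blocking buffer only (no CD28) as the reference, bound phage read after washing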
Target sequence in this assay (VH, as listed by the source, chain 1 of 2): as the sequence (VH, as listed by the source, chain 1 of 2) above
Target sequence in this assay (VL, as listed by the source, chain 2 of 2): as the sequence (VL, as listed by the source, chain 2 of 2) above
Experimental: as §2

[6] = target: Anti-CD28 Fab (SEQ ID NOs: 696, 697); experiment: phage binding ELISA; biotinylated anti-CD28 Fab on neutravidin plate, clonal phage supernatant, anti-M13 HRP detection;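 note: wells pretreated with blocking buffer, either plus or minus CD28 antigen, then given crude phage supernatant briefly without washing in between, then washed before anti-M13 HRP readout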
Target sequence in this assay (VH, as listed by the source, chain 1 of 2): as the sequence (VH, as listed by the source, chain 1 of 2) above
Target sequence in this assay (VL, as listed by the source, chain 2 of 2): as the sequence (VL, as listed by the source, chain 2 of 2) above
Experimental: Clonal phage were harvested as crude supematants and screened via standard ELISAs. […] Prior to the addition of clonal phage, wells were incubated with blocking buffer and CD28 antigen or blocking buffer alone. Without washing or aspirating, clonal phage supematants were then added to the wells and incubated for a short time. Wells were then washed followed by detection of bound phage using a horse radish conjugated anti-M13 antibody.

Binder | Phage binding ELISA, Anti-CD28 Fab signal in the presence of CD28 [1] | Phage binding ELISA, Anti-CD28 Fab (SEQ ID NOs: 696, 697) signal [2] | other results
B1 | 0.05 | 0.74 | 
B2 | 0.08 | 0.71 | 
B3 | 0.07 | 0.73 | 
B4 | 0.07 | 0.69 | 
B5 |  |  | Anti-CD28 Fab signal in the presence of CD28 (phage binding ELISA) [3]: 0.08; Anti-CD28 Fab signal (phage binding ELISA) [4]: 1.27
B6 |  |  | Anti-CD28 Fab signal in the presence of CD28 (phage binding ELISA) [3]: 0.06; Anti-CD28 Fab signal (phage binding ELISA) [4]: 1.27
B7 | 0.06 | 0.77 | 
B8 | 0.05 | 0.72 | 
B9 | 0.08 | 0.74 | 
B10 | 0.09 | 0.69 | 
B11 |  |  | Anti-CD28 Fab signal in the presence of CD28 (phage binding ELISA) [3]: 0.08; Anti-CD28 Fab signal (phage binding ELISA) [4]: 1.27
MCAAGATYPWPACL (cysteine pairing not given here; also: fused to phage pIII protein) [Phage-1361 peptide (Peptide-92 library sequence, SEQ ID NO: 1657)] |  |  | Anti-CD28 Fab signal in the presence of CD28 [5]: 0.06; Anti-CD28 Fab (SEQ ID NOs: 696, 697) signal [6]: 2.3
B12 | 0.08 | 0.75 | 
B13 | 0.06 | 0.76 | 
B14 |  |  | Anti-CD28 Fab signal in the presence of CD28 (phage binding ELISA) [3]: 0.07; Anti-CD28 Fab signal (phage binding ELISA) [4]: 1.27
B15 | 0.06 | 0.69 | 
B16 | 0.58 | 0.75 | 
B17 |  |  | Anti-CD28 Fab signal in the presence of CD28 (phage binding ELISA) [3]: 0.06; Anti-CD28 Fab signal (phage binding ELISA) [4]: 1.27
B18 | 0.06 | 0.74 | 
B19 | 0.06 | 0.7 | 
TCSAGATYAWPFCL [Phage-1360 peptide (Peptide-92 library sequence, SEQ ID NO: 1656)] |  |  | Anti-CD28 Fab signal in the presence of CD28 [5]: 0.06; Anti-CD28 Fab (SEQ ID NOs: 696, 697) signal [6]: 2.31
